Like-named read-outs stand apart in the source and are kept apart here. Where no end group is shown, it is not given here.
Key:
[1] = Pyrene fluorescence II/IIII ratio assay for micelle-like oligomer formation; assay type: physicochemical; conditions: pH 7.3, 20 mM phosphate buffer, 50 mM NaCl, 1 μM pyrene, 25 °C
calcitonin oligomer = conditions: cited from earlier work
[2] = 4 °C, 100 mM DCl (pH 1); cited from earlier work
[3] = cited from earlier work

Molecule: hIAPP1–19: N-terminal 1–19 fragment of hIAPP, significantly less amyloidogenic than the full-length peptide (KCNTATCATQRLANFLVHS; ends and bridges not checked; cysteine pairing not given here; UniProt P10997 34-52, looked up, fragment)
- micelle-like oligomer formation over the concentration range tested (pyrene II/IIII) [1]: did not form oligomers

Molecule: O=C(O[C@@H]1Cc2c(O)cc(O)cc2O[C@@H]1c1cc(O)c(O)c(O)c1)c1cc(O)c(O)c(O)c1 [EGCG]
- effect on formation of the calcitonin oligomer (calcitonin oligomer): completely abolish

Molecule: Aβ1–40: amyloid-beta peptide 1–40, linked to Alzheimer's disease
- length of spherocylindrical micelle structures (SANS) [2]: 11 nm
- radius of spherocylindrical micelle structures (SANS) [2]: 2.4 nm
- critical concentration ([3]; 10 mM phosphate buffer, pH 7.3): 8 µM
- critical concentration ([3]; 0.1 M Tris, pH 7.4 20 °C): 25 µM
- critical concentration for micelle-like oligomers ([3]; pyrene and surface tension studies): 17 µM
